In publication PMC4496087 one finds [35S]GTPγS binding to membranes of human MDM (G-protein activation), EC50 and EC50 data, which are given here for two molecules.

Test [1] addresses Wild type CCR5, endogenous on human monocyte-derived macrophages (human (endogenous in monocyte-derived macrophages)) (UniProt P51681).
The target of test [2] is Wild type CCR5, endogenous on human monocyte-derived macrophages (human (endogenous in monocyte-derived macrophages)), P51681. Nature of the test: radioligand binding; competition: human macrophages (membranes) pretreated with different amounts of CCR5-T4L or CCL5, or CCL5 plus CCR5-T4L; specific binding of 0.3 nmol/L [125I]-CCL5, 2 h at 37°C, unbound ligand removed through a 10% sucrose/PBS cushion, gamma counting. To be noted: remark: other sources report otherwise.

The molecule “Soluble recombinant CCR5-T4L protein (receptor)” yielded a [35S]GTPγS binding to membranes of human MDM (G-protein activation), EC50 in test [1] of 5460 nM.

B1: Chemokine (C-C motif) ligand 5 (CCL5), unlabelled, P13501 24-91 (ligand)
chain: SPYSSDTTPCCFAYIARPLPRAHIKEYFYTSGKCSNPAVVFVTRKNRQVCANPEKKWVREYINSLEMS
What is called EC50 is the concentration that produces a half-maximal response. On to B1, for which, in test [2], the EC50 turned out to be 0.046 nM.
